From PMC7954794, “Protein context shapes the specificity of SH3 domain-mediated interactions in vivo” (Nature Communications, 2021)
One block for each binder: values may come before it. No end group written: not given here.

Biological target: T1, NCK2 full-length recombinant protein (mouse, WT, tag-free) (mouse, UniProt O55033 1-380)
T1 construct: NCK2, mouse, full-length recombinant; also called WT NCK2; NCK2 1|2|3; source: E. coli BL21 (DE3), purified (GSTrap, TEV cleavage, HisTrap)
Experiment: fluorescence polarisation; 40 nM fluorescein isothiocyanate-conjugated peptide, NCK2 titrated (0-150 μM for CD3ε, 0-175 μM for PAK1); 17 mM Tris-HCl pH 8, 100 mM NaCl; one-site total binding model; triplicates
Conditions: both partners purified

T1 sequence (O55033 whole entry): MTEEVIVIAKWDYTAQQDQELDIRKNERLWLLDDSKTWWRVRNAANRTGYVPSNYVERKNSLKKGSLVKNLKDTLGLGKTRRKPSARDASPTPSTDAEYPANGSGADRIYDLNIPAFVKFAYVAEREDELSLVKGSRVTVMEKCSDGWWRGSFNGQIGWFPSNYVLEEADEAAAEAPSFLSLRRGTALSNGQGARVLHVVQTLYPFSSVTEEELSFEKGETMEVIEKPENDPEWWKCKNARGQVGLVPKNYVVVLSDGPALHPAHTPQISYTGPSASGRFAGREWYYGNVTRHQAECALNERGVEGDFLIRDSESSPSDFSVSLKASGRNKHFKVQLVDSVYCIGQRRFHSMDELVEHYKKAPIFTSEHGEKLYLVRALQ

binding result: binds
B1: Cd3ε peptide (RGQNKERPPPVPNPDY), fluorescein isothiocyanate-conjugated (peptide)
peptide: RGQNKERPPPVPNPDY
modifications: also: fluorescein isothiocyanate-conjugated (position not given here)
notes: peptide of CD3 epsilon, ligand of NCK2 SH3-1; also called CD3Ɛ

binding result: binds
B2: PAK1 peptide (DIQDKPPAPPMRNTST), fluorescein isothiocyanate-conjugated (peptide)
peptide: DIQDKPPAPPMRNTST
modifications: also: fluorescein isothiocyanate-conjugated (position not given here)
notes: peptide of PAK1, ligand of NCK2 SH3-2; also called PAK1 target peptide
